First the molecules themselves.
B1: GST-PHD1 (S287-K347) of KDM5A (domain or fragment)
chain: SVNFVDLYVCMFCGRGNNEDKLLLCDGCDDSYHTFCLIPPLPDVPKGDWRCPKCVAEECSK

Experiment [1] has as its target B1. Put plainly: FP.
Experiment [2] deals with B1. Put plainly: FP; H3R2me2s (symmetric dimethyl).
Experiment [3] deals with B1. Description: FP; H3R2me2a (asymmetric dimethyl).
Experiment [4] concerns the target H3 10mer peptide mutated at R2 (UniProt P68431 2-11). Put plainly: FP; H3R2A.
Experiment [5] concerns the target B1. Description: FP; H3T6ph.
Experiment [6] has as its target B1. Put plainly: FP; H3R8me2s (symmetric dimethyl).
Experiment [7] deals with B1. Description: FP; H3R8me2a (asymmetric dimethyl).

Where no end group is shown, it is not given here. [ ]: non-standard residue; d: D form. pT = C[C@@H](OP(=O)(O)O)[C@H](N)C(=O)O

In the case of ARTKQTARKS (trimethyl-lysine at 9 (K9me3)) [H3K9me3 10mer peptide], the affinity in experiment [1], expressed as Kd, was 0.74 µM.

Turning to ARTKQTARKS (acetyl-lysine at 9 (K9ac)) [H3K9ac 10mer peptide], the Kd (in general, the free concentration of one partner at which half of the binding sites on the other are occupied at equilibrium, for simple one-to-one binding) in experiment [1] is 1.01 µM.

For ARTKQTARKS (also: methylated Arg2, degree of methylation not given here) [H3 10mer peptide methylated at R2], the Kd in experiment [2] was found to be 5.31 µM; in experiment [3] it was 5.41 µM.

On to ARTKQTARKS [unmodified H3 10mer effector peptide (H3 Ala1-Ser10)], for which, in experiment [1], the affinity, expressed as Kd, was 0.996 µM.

In experiment [4], B1 had an equilibrium dissociation constant (Kd) of 205 µM.

The molecule ARTKQ[pT]ARKS [H3 10mer peptide phosphorylated at T6] displayed a Kd in experiment [5] of 72 µM.

As for ARTKQTARKS (also: methylated Arg8, degree of methylation not given here) [H3 10mer peptide methylated at R8], the dissociation constant (Kd) in experiment [6] was 2.01 µM; in experiment [7], 1.84 µM.
